Results on 2 molecules are retold here after US20070212686A1 (WHITEHEAD INSTITUTE FOR BIOMEDICAL RESEARCH, published 2007).

The labels stand for the following.
T1: bacterial-expressed 3'Flag-Acrp30 (full length) (murine, UniProt Q60994 18-247)
T1 construct: The bacterial construct is not described; also called Full Length Acrp; bacterial expressed Flag-tagged full-length
T1 sequence: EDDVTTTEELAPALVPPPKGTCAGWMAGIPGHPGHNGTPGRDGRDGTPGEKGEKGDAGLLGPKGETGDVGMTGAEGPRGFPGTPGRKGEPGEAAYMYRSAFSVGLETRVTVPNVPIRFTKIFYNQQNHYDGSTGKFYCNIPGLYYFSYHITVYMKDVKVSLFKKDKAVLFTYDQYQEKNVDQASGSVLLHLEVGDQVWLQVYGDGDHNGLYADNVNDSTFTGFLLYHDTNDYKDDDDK

B1: HEK produced hexameric and high-molecular weight 5'FlagAcrp30 (ligand)
chain: DYKDDDDKEDDVTTTEELAPALVPPPKGTCAGWMAGIPGHPGHNGTPGRDGRDGTPGEKGEKGDAGLLGPKGETGDVGMTGAEGPRGFPGTPGRKGEPGEAAYMYRSAFSVGLETRVTVPNVPIRFTKIFYNQQNHYDGSTGKFYCNIPGLYYFSYHITVYMKDVKVSLFKKDKAVLFTYDQYQEKNVDQASGSVLLHLEVGDQVWLQVYGDGDHNGLYADNVNDSTFTGFLLYHDTN
notes: Pool of hexamers (6 chains) and HMW species (more than 6 chains), about 50% pure, made by ammonium sulfate precipitation and anion exchange; also called HEX & HMW; hexameric and HMW 5'Flag-Acrp30
B2: murine T-cadherin (full-length), over-expressed on cells (receptor)
chain: SIVVSPILIPENQRQPFPRDVGKVVDSDRPEGSKFRLTGKGVDQDPKGTFRINENTGSVSVTRTLDRETIATYQLYVETTDASGKTLEGPVPLEVIVIDQNDNRPIFREGPYIGHVMEGSPTGTTVMRMTAFDADDPATDNALWRYNIRQQTPDKPSPNMFYIDPEKGDIVTVVSPALLDRETLENPKYELIIEAQDMAGLDVGLTGTATATIVIDDKNDHSPKFTKKEFQARVEEGAVGVIVNLTVEDKDDPTTGAWRAAYTIINGNPGQSFEIHTNPQTNEGMLSVVKPLDYEISAFHTLLIKVENEDPLVPDVSYGPSSTATVHITVLDVNEGPVFYPDPMMVTKQENISVGSVLLTVNATDPDSLQHQTIRYSIYKDPAGWLSINPINGTVDTTAVLDRESPFVHNSVYTALFLAIDSGNPPATGTGTLLITLEDINDNAPVIYPTVAEVCDDARNLSVVILGASDKDLHPNTDPFKFEIHKQTVPDKVWKISKINNTHALVSLLQNLNKANYNLPIMVTDSGKPPMTNITDLKVQVCSCKNSKVDCNGAG
modifications: GPI anchor at the C-terminus (said of T-cadherin in general in the background)
notes: Expressed from the full-length cDNA in CHO, CHO-ER and Ba/F3 cells; also called pCDNA-Tcad; pBI-GFP-Tcad

Assay [1] has as its target B2. As to the kind of experiment: cell ELISA on CHO-T-cadherin cells, anti-Flag M2 detection; concentration as trimer equivalents. The method, then: (§1) CHO-ER cell lines infected with the bicistronic retroviral construct pBI-GFP-Tcad (referred to as CHO-T-cadherin) and control cells infected with pBI-GFP (referred to as CHO-GFP) were each grown in 96 well plates. One day after plating (1.5×10⁴/well), the cells were incubated in serum-free media for one hour, placed at 4° C. for thirty minutes, and blocked in PBS++ containing 4% dried milk for thirty minutes. Bacterial expressed Flag-tagged globular-Acrp30 bacterial expressed Flag-tagged full-length, or purified trimeric or hexameric and HMW 5′Flag-Acrp30 produced in HEK cells were incubated with the cells for one hour in blocking buffer at the indicated concentrations. The HEK expressed polypeptides were produced and purified by ammonium sulfate precipitation and anion-exchange chromatography. Pools containing the trimeric or a combination of hexamer and HMW 5′Flag-Acrp30 were identified by native gel electrophoresis and immunoblotting with a Flag antibody. The purity of these preparations was judged to be approximately 50% by Coomassie PAGE analysis. Protein concentration was determined by BCA assay (Pierce). The concentration of purified bacterial expressed proteins was determined by the absorbance at 280 nm and the calculated extinction coefficient derived from the primary amino acid sequence (Protean; DNAStar). […] The absorbance at 450 nm was measured with a plate reader.
(An ELISA detects its analyte on a solid surface through an enzyme-linked reagent.)

For assay [2], the target named is T1, bacterial-expressed 3'Flag-Acrp30 (full …). As to the kind of experiment: cell ELISA on CHO-T-cadherin cells, anti-Flag M2 detection. The procedure: as §1

The EC50 is the concentration needed to bring the measured effect to its halfway point. Regarding B1, in assay [1], the concentration for a half-maximal effect (EC50) was in the range of 25 to 50 nM. B2: the binding result in assay [2] is reported as “no binding”.
